These results are taken from patent US5843460.

In the assay the target is H. pylori urease (UreA and UreB subunits) expressed in E. coli from the urease gene cluster of pILL763 or pILL753 (Helicobacter pylori).

For “H. pylori HspA heat shock protein (GroES-like)”, the urease activity (Berthelot reaction) of E. coli co-expressing the urease gene cluster and HspA plus HspB stood at 3 fold. As to “H. pylori HspB heat shock protein (GroEL-like)”, the urease activity (Berthelot reaction) of E. coli co-expressing the urease gene cluster and HspA plus HspB amounted to 3 fold.
